# B1: 70 bp (CAG)1 loop DNA (FRET) (dsDNA)
# DNA 1: CACACGTTCCGAGATATCCTAGCAAGTGATCAGCGTCTATGTAGCTCAAGAGTTCGACTCAGCCTACACCGAG
# DNA 2: CTCGGTGTAGGCTGAGTCGAACTCTTGAGCTACATAGACGATCACTTGCTAGGATATCTCGGAACGTGTG
# modifications: internal dye-dT
# B2: 70 bp (CAG)2 loop DNA (FRET) (dsDNA)
# DNA 1: CACACGTTCCGAGATATCCTAGCAAGTGATCAGCAGCGTCTATGTAGCTCAAGAGTTCGACTCAGCCTACACCGAG
# DNA 2: B1 DNA 2
# modifications: internal dye-dT
# B3: 70 bp (CAG)4 loop DNA (FRET) (dsDNA)
# DNA 1: CACACGTTCCGAGATATCCTAGCAAGTGATCAGCAGCAGCAGCGTCTATGTAGCTCAAGAGTTCGACTCAGCCTACACCGAG
# DNA 2: B1 DNA 2
# modifications: internal dye-dT
# B4: 61 bp homoduplex, biotinylated (SPR) (dsDNA)
# DNA 1: CTGAAGCTTAGCTTAGGATCATCGAGGATCAGCTCGGTGCAATTCAGCGGTACCCAATTC
# DNA 2: GAATTGGGTACCGCTGAATTGCACCGAGCTGATCCTCGATGATCCTAAGCTAAGCTTCAG
# B5: 61 bp (CAG)2 loop DNA, biotinylated (SPR) (dsDNA)
# DNA 1: CTGAAGCTTAGCTTAGGATCATCGAGGATCCAGCAGAGCTCGGTGCAATTCAGCGGTACCCAATTC
# DNA 2: B4 DNA 2
# Tests used:
# [1] = target: T1, MSH2 (MutSβ subunit);MSH3 (MutSβ subunit) (Homo sapiens;Homo sapiens, UniProt P43246;P20585 1-934;1-1137, |); assay: FRET (DNA bending); no ATP; 100 nM protein; SPR: 25 mM HEPES pH 7.5, 150 mM KCl, 5 mM MgCl2, 1 mM DTT, 0.05% Tween, 0.05% BSA, 25 C; FRET: 50 mM HEPES pH 7.0, 200 mM NaCl, 1 mM MgCl2, 1 mM DTT, 0.05% Tween-20, RT; settings: protein: recombinant;recombinant, tags: none;none, copies: 1;1, label: Cy5 strand 1, Cy3 strand 2, 5' digoxigenin, blunt
# [2] = target: T1, MSH2 (MutSβ subunit);MSH3 (MutSβ …); assay: SPR (steady state); no ATP; 5 mM Mg2+; SPR: 25 mM HEPES pH 7.5, 150 mM KCl, 5 mM MgCl2, 1 mM DTT, 0.05% Tween, 0.05% BSA, 25 C; FRET: 50 mM HEPES pH 7.0, 200 mM NaCl, 1 mM MgCl2, 1 mM DTT, 0.05% Tween-20, RT; settings: protein: recombinant;recombinant; tags: none;none; copies: 1;1; label: 5' biotin; blunt
# [3] = target: T1, MSH2 (MutSβ subunit);MSH3 (MutSβ …); assay: SPR (steady state); 5 mM Mg2+; no ATP; SPR: 25 mM HEPES pH 7.5, 150 mM KCl, 5 mM MgCl2, 1 mM DTT, 0.05% Tween, 0.05% BSA, 25 C; FRET: 50 mM HEPES pH 7.0, 200 mM NaCl, 1 mM MgCl2, 1 mM DTT, 0.05% Tween-20, RT; settings: protein: recombinant;recombinant; tags: none;none; copies: 1;1; label: 5' biotin; blunt, (CAG)2 6-nt extrahelical loop in strand 1
# [4] = target: T1, MSH2 (MutSβ subunit);MSH3 (MutSβ …); assay: SPR (kinetic, preferred by authors); 5 mM Mg2+; no ATP; SPR: 25 mM HEPES pH 7.5, 150 mM KCl, 5 mM MgCl2, 1 mM DTT, 0.05% Tween, 0.05% BSA, 25 C; FRET: 50 mM HEPES pH 7.0, 200 mM NaCl, 1 mM MgCl2, 1 mM DTT, 0.05% Tween-20, RT; settings: protein: recombinant;recombinant; tags: none;none; copies: 1;1; label: 5' biotin; blunt, (CAG)2 6-nt extrahelical loop in strand 1
binder,measurement,setting,value
B1,binding result,[1]; 3-nt CAG loop in strand 1,binds
B2,binding result,[1]; 6-nt (CAG)2 loop in strand 1,binds
B3,binding result,[1]; 12-nt (CAG)4 loop in strand 1,binds
B4,Kd,[2],3.32 nM
B5,Kd,[3],0.265 nM
same,Kd,[4],0.0672 nM

# Source: publication PMC12231599, “Elucidation of multiple high-resolution states of human MutSβ by cryo-EM reveals interplay between ATP/ADP binding and heteroduplex DNA recognition”
